Data taken from a protein production outcome set (Wang et al. 2014).

Test: label from the status in PepcDB records
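Note: failed if final PepcDB status was selected cloned or expressed and not failed if soluble or beyond.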

| Sequence | protein production |
| --- | --- |
| MFMAKRYENMDNVSTKKSIRSFLRWRKERKQNKKDFSFLVEQSPVKQSAFLQSNVEKTTITWIGHSTFLIQTNGLNILTDPVWANKLKLVPRLTEPGLSIEALPKIDIVLISHGHYDHLDFSTLRQLNDDVLYLVPIGLKKLFTRKKFKHVEEYKWWESTIINEVSFHFVPSQHWTRRFLFDMNTSHWGGWIIDNETTMETIYFCGDSGYFQGFKEIGERFLIDIALMPIGAYEPEWFMKVSHVSPEEAVQAYLDLNATHFIPMHYGAFALADETPREAITRLRNNWNLRMLPWEQLHVLFLGQTFIYSNATNNKQIKEKIETLHV | failed |
| MVEEVQKHSVHTLVFRSLKRTHDMFVADNGKPVPLDEESHKRKMAIKLRNEYGPVLHMPTSKENLKEKGPQNAPDSYPHKQYPANQGQDVEYLVTGTHPYPPGPGVALTADTKIQRMPSESAAQSLAVALPSQTRVDANRTAPAGSEYRHPGASDRSQPTAMNSMIMETSNTKNSALMAKKAPTMPKPQWHPPWKLYRVISGHLGWVRCIAVEPGNQWFVTGSADRTIKIWDLASGKLKLSLTGHISTVRGVIVSTRSPYLFSCGEDKQVKCWDLEYNKVIRHYHGHLSAVYGLDLHPTIDVLVTCSRDSTARIWDVRTKASVHTLSGHTNAVATVRCQAAEPQIITGSHDTTIRLWDLVAGKTRVTLTNHKKSVRAVVLHPLHYTFASGSPDNIKQWKFPDGGFIQNLSGHNAIINTLAVNTDGVLVSGADNGTMHLWDWRTGYNFQRVHAAVQPGSLDSESGIFACAFDRSESRLLTAEADKTIKVYREDETATEETHPVSWKPEIIKRKRF | failed |
| QHTEERELKKRLMNTARTVSEMTEVKEALARKKQTEAVRHAVEEIRMINEADYIVVMDMNHIRYTHPVSTSIGKKSEGADEEAAFAEHIYFSEAKGEIGTAVRAFYPVKDQDLNQIGVVLVGKTLPGIAD | failed |
| MYHILFRRKSIVPAYNESTTIVSSIDSLLHLDYEAYEIIVVDDGSSDNTSDVLKEEFALMKISNTIDSIIATQTCKDVFQRQVGKVKLTLIVKENGGKGDALNMGINAANYDYFLCLDADSMLQVDSLSQISKSIQVDPTVIAVGGLVQVAQGVKIEQGKVASYRLPWRIIPCAQALEYDSSFLGARIFLDYLRANLIISGAFGLFKKDLVKAVGGYDTQTLGEDMELVMKLHFFCRNNNIPYRICYETDAVCWSQAPTNLGDLRKQRRRWYLGLYQCLKKYKSIFANYRFGAVGSISYIYYILFELLTPFIECFGIVIIFLSLLFNQLNIPFFISLVSLYIFYCVLITLSSFLHRIYSQQLVIGILDIVKVFYIAVFRYLILHPVLTFVKVASVIGYKNKKMVWGHITREKQMKDFETSVT | failed |
| MVGISFVFDKISNGISSYKSIKGIEQAHKSKKIASDLREYGYKLLDCRKLEAAKDAFEEALRFDPTNPEIQMGLFKSAVFQPILTKNPTYYDAEIALKKIETILKKNPNDRHAYYFMGEIYRDSDPKKASNYYKKVISLDPKSYLTGLAYNSLAYIAATEKDNDLAFYYMKKAANLCEMNPTVLNNLSYQHLIRGQYEITIEKLTRLIKHDPYKIIVFWNIINSLRMIGKFQEAYIYNHMLIECIEDETTSYHAANLGAFFFQTDPSGDGVFFKEISGKKFYSYCSMALTCYVLDLTEEANMYLEKAQKLDCFSKASAIKFLYYNIECIQKNNVKLIYKLDDIKERLIKLDLFTNVSITVARNETQYINMAKV | failed |
| MGPSILKMLTHAKSHKEALMAFSRREFLKSAAAASAASAVGMSVPSQLLAQAQEGEKGWRWDKSVCRFCGTGCGIMVATKNDQIVAVKGDPAAPVNRGLNCIKGYFNAKIMYGADRLTDPLLRVNEKGEFDKQGKFKPVSWKKAFDVMEAQFKRAYNELGPTGIGVFGSGQYTIQEGYMAAKLIKGGFRSNNLDPNARHCMASAVAAFMETFGIDEPAGCYDDIELTDTIITWGANMAEMHPILWARVTDKKLSNPDKVKVINLSTYTNRTSDLADIEIIFTPQTDLAIWNYIAREIVYNHPESIDMEFVKNHCIFTTGFTDIGYGMRTDIKHAKYDPKELDIAAKERSKVLSEAEGVTLRYLGMKAGDVMEMKHNATAGNHWEITFEDFKKALEPYTLDFVAKLAKGNSEESLESFKEKLQKLANLYIEKERKVVSFWTMGMNQHTRGTWVNEQSYMVHFLLGKQAKPGSGAFSLTGQPSACGTAREVGTFSHRLPADMVVANPKHRAVSEKIWKLPEGTLNPKMGAHYMNIMRDLEDGKIKFAWIQVNNPWQNTANANHWIKAAREMDNFIVCSDAYPGISAKVADLILPTAMIYEKWGAYGNAERRTQHWRQQVVPVGNAMPDVWQMAEFSKRFKLKEVWGAKKIDDKLTLPDVLEKAKAMGYSPEDTLFEVLFANSEAKSFKAKDPIGEGFENTEVFGDRRNVAGSDGEVFKGYGFFIHKYLWEEYRRFGNGHGHDLADFDTYHKVRGLKWPVVDGKETQWRFNAKYDPYARKAGSGEFAFYGDAMKELPRGDLLSPKTEEKFKLTNKAKIFFRPYMDPPEMPSSEYPLWLCTGRVLEHWHSGTMTMRVPELYRAVPEALCYMHPEDAKKLGVKQNEAVWVESRRGKVKARVDTRGRNRTPLGLVYVPWFDEKVYINKVCLDATCPISKQTDFKKCAVKVYKA | failed |
| MKENLQDRLERENLKIASFGKRVLAFLIDDMVISLIVFIIFYDRLIQAKDLFETTQIVGNFYLGFILLHFSYQAIFTYLYGASLGKILCKIIILDENLLDKPNLIQSCIRSAVRQVSAMAFMLGFAWALSNDLRKAWEDYLARTIVVDVA | failed |
| MKFRGNFVCQPRAGPAESRPTRPFTPRPSATGSLFMSNQHFVSPDLIRQGFSRAMSDMYREEVPLYGALMELVAEVNAQVLERQPALARHLQSSGELQRLDLERHGAIRVGSAAELATLARLFAVMGMQPVGYYDLTPAGVPVHSTAFRAVHEAALQVSPFRVFTSLLRLELIDNPELRSFAEQVLARRQIFTPQVLELIQQAEAAGGLDAEDAERFIRQALETFRWHHHATVTAAQYASLSAQHRLIADVVAFKGPHINHLTPRTLDIDEVQRLMPARGITPKAVIEGPPRRECPILLRQTSFKALEESVAFTDQAQSQGSHSARFGEIEQRGAALTPKGRELYDRLLNAARDALGDFPNEANAQRYNQLMQEHFREFPDSHPAMREQGLAYFRYFVSETGLAARNQPQRPTTLAALLAAGHLSAEPLVYEDFLPVSAAGIFQSNLGDDSQSHYAGQSNRQAFEAALGRPTLDELQLYAQTQQRSLEHCAATLGLPALLEHHHHHH | failed |
| MKQFGGPVLFLDRSDINTDEIIPAKYLTEITKEDLKPYILEDLKLPGFDPKGEKTKTARVVVSRANFGCGSSREHAPWVFEVNGITAVIAESFARIFRQNMFNCGMAAIELSADTIEGLFTYAGCADAAISIDVAGQTLTISGGGTSETHSFDISPFDKALVLAGGWVDYADSKY | failed |
| MAALSEKEAEAYLDARPRYPIDWFKKIAARTQDHKFAWDVGTGNGQAAIGLVEHYENVVATDINEAQLQRAIKHSRISYHHTPTTISEDEMVDLLGGENSVDLIVAAQAVHFFDLNVFYNVAKRVLRKEGGLIAVWVYNDIIISHEIDPIMKRLVDSTLPFRTPIMNLAFDGYKTLTFPFETIGMGSEGKPITLDIPHKLSLKGFIGFLRSWQPAMKAKEKGVELINEDLITKFEEAWGDETQVKDVFYKAHMIVGKIPEEKFESDQVLSNKGRLLLETEVGRNQKRPQPSDEGDRQSKKQNTSEDDACKDKPSSVFSTHYRF | failed |
| MSSPLVLPSDGHYWLKNAHIPPNLVKTKVNFPENFQFPRPWEDLGLYHLEIADGKIKNIVAVGQGEESDLVTDDGVPRVDLSKRMILPCFVDMHTHLDKGHIWGRSPNVDGTFSGAIASTERDAELHHSPEDIYRRMEFALQCSYAHGTAAVRTHIEMAGQKSQIAWQTFQQLRQAWADRLTLQGVAMVTTDYYLGSAGEKLADQMAHGGGILGGVAYAGPQVEAQLTRLMTLAQARNLAIDLHVDENGDRRSRVLHQVAAIALKVGFTGQIVCGHCCSLDVQSPQQVQQTLALVKQANIAIISLPLCNLYLQGRHQPQKPAWRGITKVHAIHAEGIPLVFASDNCRDPFFPFGDHDGLEILNQSVRIGQLDPPYGHWCATVNQTPAQLMGLADYGRLAVNGPADLVIFPARYFSEIFSRPQGDRLVIRKGKPTHKKTPHYQELDDLMGA | failed |
| MKILIDGDACPKAVLQICLKKGRQYGIPVWTVASFNHEIASDHHIVVGNAPQETDLKVVNLSEAGDIIVTQDIGLAAMVLGKGARALSPTGKEYRPESIANLLEERELKAKYRRSLEHHHHHH | not failed |
| NIEQLSQSLEHMANQAATLDRQRGEHHVPLFDERLFSCRSRLLTPCVKEAKSTLDAIIREQNENKLTALRAEYLTERLVAQIGAIQREISTTKIRKNEIKHSSHFRKPINVLYQELAQHQEWARRLREMVLEKERAVETAPSFMRAEAQKVLLATEQRLARCEAALLKLENQITHREK | failed |
